Measured values as given in the Human Domainome abundance scans (Beltran et al. 2025).
± gives the uncertainty stated by the source.

B1: POU domain, class 6, transcription factor 2, residues 609 to 663; numbered along this chain, P78424 (parent)
chain: KRRTSFTPQALEILNAHFEKNTHPSGQEMTEIAEKLNYDREVVRVWFCNKRQALK

Variants of: B1
Test: abundance fitness (aPCA) (normalised: wild type 0, dead -1); higher = more abundant; growth selection in yeast, the domain comes from the species named
Details: Homo sapiens
Work on KRRTMFTPQALEILNAHFEKNTHPSGQEMTEIAEKLNYDREVVRVWFCNKRQALK [S5M] yielded an abundance fitness of -0.127 ± 0.1.
KRRTKFTPQALEILNAHFEKNTHPSGQEMTEIAEKLNYDREVVRVWFCNKRQALK [S5K] gave an abundance fitness of 0.035 ± 0.12.
For KRRTPFTPQALEILNAHFEKNTHPSGQEMTEIAEKLNYDREVVRVWFCNKRQALK [S5P], the abundance fitness was -0.032 ± 0.12.
Work on KRRTVFTPQALEILNAHFEKNTHPSGQEMTEIAEKLNYDREVVRVWFCNKRQALK [S5V] yielded an abundance fitness of 0.015 ± 0.074.
In the case of KRRTAFTPQALEILNAHFEKNTHPSGQEMTEIAEKLNYDREVVRVWFCNKRQALK [S5A], the abundance fitness is reported as 0.019 ± 0.093.
Variant KRRTIFTPQALEILNAHFEKNTHPSGQEMTEIAEKLNYDREVVRVWFCNKRQALK [S5I] has an abundance fitness of 0.079 ± 0.12.
KRRTEFTPQALEILNAHFEKNTHPSGQEMTEIAEKLNYDREVVRVWFCNKRQALK [S5E] gave an abundance fitness of 0.083 ± 0.079.
Work on KRRTWFTPQALEILNAHFEKNTHPSGQEMTEIAEKLNYDREVVRVWFCNKRQALK [S5W] yielded an abundance fitness of -0.11 ± 0.082.
In the case of KRRTQFTPQALEILNAHFEKNTHPSGQEMTEIAEKLNYDREVVRVWFCNKRQALK [S5Q], the abundance fitness is reported as 0.221 ± 0.14.
Work on KRRTYFTPQALEILNAHFEKNTHPSGQEMTEIAEKLNYDREVVRVWFCNKRQALK [S5Y] yielded an abundance fitness of -0.147 ± 0.1.
KRRTRFTPQALEILNAHFEKNTHPSGQEMTEIAEKLNYDREVVRVWFCNKRQALK [S5R] gave an abundance fitness of -0.113 ± 0.058.
Work on KRRTLFTPQALEILNAHFEKNTHPSGQEMTEIAEKLNYDREVVRVWFCNKRQALK [S5L] yielded an abundance fitness of -0.06 ± 0.071.
For KRRTTFTPQALEILNAHFEKNTHPSGQEMTEIAEKLNYDREVVRVWFCNKRQALK [S5T], the abundance fitness was 0.12 ± 0.11.
For KRRTDFTPQALEILNAHFEKNTHPSGQEMTEIAEKLNYDREVVRVWFCNKRQALK [S5D], the abundance fitness was -0.063 ± 0.097.
Variant KRRTGFTPQALEILNAHFEKNTHPSGQEMTEIAEKLNYDREVVRVWFCNKRQALK [S5G] has an abundance fitness of 0.041 ± 0.055.
In the case of KRRTHFTPQALEILNAHFEKNTHPSGQEMTEIAEKLNYDREVVRVWFCNKRQALK [S5H], the abundance fitness is reported as -0.245 ± 0.13.
KRRTNFTPQALEILNAHFEKNTHPSGQEMTEIAEKLNYDREVVRVWFCNKRQALK [S5N] gave an abundance fitness of -0.075 ± 0.12.
With KRRTSFTVQALEILNAHFEKNTHPSGQEMTEIAEKLNYDREVVRVWFCNKRQALK [P8V] the abundance fitness was 0.004 ± 0.11.
With KRRTSFTTQALEILNAHFEKNTHPSGQEMTEIAEKLNYDREVVRVWFCNKRQALK [P8T] the abundance fitness was 0.477 ± 0.48.
With KRRTSFTIQALEILNAHFEKNTHPSGQEMTEIAEKLNYDREVVRVWFCNKRQALK [P8I] the abundance fitness was -0.189 ± 0.24.
KRRTSFTYQALEILNAHFEKNTHPSGQEMTEIAEKLNYDREVVRVWFCNKRQALK [P8Y] showed an abundance fitness of -0.572 ± 0.28.
In the case of KRRTSFTHQALEILNAHFEKNTHPSGQEMTEIAEKLNYDREVVRVWFCNKRQALK [P8H], the abundance fitness is reported as -0.177 ± 0.33.
KRRTSFTSQALEILNAHFEKNTHPSGQEMTEIAEKLNYDREVVRVWFCNKRQALK [P8S] gave an abundance fitness of 0.05 ± 0.13.
In the case of KRRTSFTRQALEILNAHFEKNTHPSGQEMTEIAEKLNYDREVVRVWFCNKRQALK [P8R], the abundance fitness is reported as -0.148 ± 0.1.
Work on KRRTSFTWQALEILNAHFEKNTHPSGQEMTEIAEKLNYDREVVRVWFCNKRQALK [P8W] yielded an abundance fitness of -0.394 ± 0.13.
In the case of KRRTSFTQQALEILNAHFEKNTHPSGQEMTEIAEKLNYDREVVRVWFCNKRQALK [P8Q], the abundance fitness is reported as -0.365 ± 0.17.
With KRRTSFTAQALEILNAHFEKNTHPSGQEMTEIAEKLNYDREVVRVWFCNKRQALK [P8A] the abundance fitness was 0.022 ± 0.12.
In the case of KRRTSFTNQALEILNAHFEKNTHPSGQEMTEIAEKLNYDREVVRVWFCNKRQALK [P8N], the abundance fitness is reported as -0.072 ± 0.29.
KRRTSFTLQALEILNAHFEKNTHPSGQEMTEIAEKLNYDREVVRVWFCNKRQALK [P8L] showed an abundance fitness of -0.057 ± 0.11.
In the case of KRRTSFTFQALEILNAHFEKNTHPSGQEMTEIAEKLNYDREVVRVWFCNKRQALK [P8F], the abundance fitness is reported as -0.147 ± 0.21.
Variant KRRTSFTDQALEILNAHFEKNTHPSGQEMTEIAEKLNYDREVVRVWFCNKRQALK [P8D] has an abundance fitness of 0.038 ± 0.14.
Work on KRRTSFTKQALEILNAHFEKNTHPSGQEMTEIAEKLNYDREVVRVWFCNKRQALK [P8K] yielded an abundance fitness of -0.138 ± 0.2.
For KRRTSFTMQALEILNAHFEKNTHPSGQEMTEIAEKLNYDREVVRVWFCNKRQALK [P8M], the abundance fitness was 0.037 ± 0.17.
Variant KRRTSFTCQALEILNAHFEKNTHPSGQEMTEIAEKLNYDREVVRVWFCNKRQALK [P8C] has an abundance fitness of -0.023 ± 0.14.
KRRTSFTPGALEILNAHFEKNTHPSGQEMTEIAEKLNYDREVVRVWFCNKRQALK [Q9G] gave an abundance fitness of -0.06 ± 0.085.
Variant KRRTSFTPMALEILNAHFEKNTHPSGQEMTEIAEKLNYDREVVRVWFCNKRQALK [Q9M] has an abundance fitness of -0.041 ± 0.22.
In the case of KRRTSFTPIALEILNAHFEKNTHPSGQEMTEIAEKLNYDREVVRVWFCNKRQALK [Q9I], the abundance fitness is reported as -0.057 ± 0.5.
Variant KRRTSFTPPALEILNAHFEKNTHPSGQEMTEIAEKLNYDREVVRVWFCNKRQALK [Q9P] has an abundance fitness of -0.028 ± 0.15.
With KRRTSFTPNALEILNAHFEKNTHPSGQEMTEIAEKLNYDREVVRVWFCNKRQALK [Q9N] the abundance fitness was -0.141 ± 0.18.
In the case of KRRTSFTPTALEILNAHFEKNTHPSGQEMTEIAEKLNYDREVVRVWFCNKRQALK [Q9T], the abundance fitness is reported as -0.106 ± 0.18.
With KRRTSFTPKALEILNAHFEKNTHPSGQEMTEIAEKLNYDREVVRVWFCNKRQALK [Q9K] the abundance fitness was -0.037 ± 0.2.
Variant KRRTSFTPLALEILNAHFEKNTHPSGQEMTEIAEKLNYDREVVRVWFCNKRQALK [Q9L] has an abundance fitness of -0.253 ± 0.092.
For KRRTSFTPYALEILNAHFEKNTHPSGQEMTEIAEKLNYDREVVRVWFCNKRQALK [Q9Y], the abundance fitness was -0.088 ± 0.3.
For KRRTSFTPEALEILNAHFEKNTHPSGQEMTEIAEKLNYDREVVRVWFCNKRQALK [Q9E], the abundance fitness was -0.432 ± 0.2.
Variant KRRTSFTPHALEILNAHFEKNTHPSGQEMTEIAEKLNYDREVVRVWFCNKRQALK [Q9H] has an abundance fitness of -0.049 ± 0.24.
KRRTSFTPWALEILNAHFEKNTHPSGQEMTEIAEKLNYDREVVRVWFCNKRQALK [Q9W] showed an abundance fitness of -0.184 ± 0.16.
Work on KRRTSFTPSALEILNAHFEKNTHPSGQEMTEIAEKLNYDREVVRVWFCNKRQALK [Q9S] yielded an abundance fitness of -0.207 ± 0.096.
Variant KRRTSFTPDALEILNAHFEKNTHPSGQEMTEIAEKLNYDREVVRVWFCNKRQALK [Q9D] has an abundance fitness of -0.12 ± 0.15.
